From US20210139581A1 (Alector, published 2021)
Substitutions are numbered along the chain they refer to. Names and notes keep the numbering of the source.

B1: AB-H2 (antibody, V domains shown)
VH: QVQLVQSGAEVKKPGASVKVSCKASGYTFTDYNLHWVRQAPGQGLEWIGFIYPSNGITGYAQKFQGRVTMTVDTSTSTVYMELSSLRSEDTAVYYCARSTVDYFDYWGQGTLVTVSS
VL: DIQMTQSPSSLSASVGDRVTITCRASQSVSTSTYSYMHWYQQKPGKAPKLLIYYASNLESGVPSRFSGSGSGTDFTLTISSLQPEDFATYYCQHSWEIPLTFGQGTKLEIK
notes: Humanized variant of murine 2F5.1
B2: AB-H9 (antibody, V domains shown)
VH: B1 VH with V11L, G44R, A61S, R67K, V68A, M70L, T76A, V79A, L112T
VL: B1 VL
notes: as for B1
B3: AB-H66 (antibody, V domains shown)
VH: B1 VH with V20I, V68A, M70L, V79A, L112T
VL: DIVLTQSPDSLAVSLGERATINCRASQSVSTSTYSYMHWYQQKPGQPPKLLIKYASNLESGVPDRFSGSGSGTDFTLTISSLQAEDVAVYYCQHSWEIPLTFGQGTKLEIK
notes: as for B1
B4: AB-H15 (antibody, V domains shown)
VH: B1 VH with V20I, V68A, M70L, V79A, V113L
VL: B1 VL with Y53K
notes: as for B1
B5: AB-H65 (antibody, V domains shown)
VH: B1 VH with I48M, V72R, L112T
VL: B3 VL
notes: as for B1
B6: AB-64.7 (antibody, V domains shown)
VH: B1 VH with V20I, L34Y, V68A, M70L, T74N, V79A, T100D, V113L
VL: B3 VL with S30G, E59N, W96E
B7: AB-64.6 (antibody, V domains shown)
VH: B1 VH with V20I, L34Y, V68A, M70L, T74N, V79A, T100D, V113L
VL: B3 VL with S28D, N57F
B8: AB-64.2 (antibody, V domains shown)
VH: B1 VH with V20I, V68A, M70L, T74N, V79A, V113L
VL: B3 VL with A25V, S28D
B9: AB-64.8 (antibody, V domains shown)
VH: B1 VH with V20I, L34Y, G66H, V68A, M70L, T74N, V79A, T100D, V113L
VL: B3 VL with S28D
B10: AB-64.5 (antibody, V domains shown)
VH: B1 VH with V20I, L34Y, Q65F, V68A, M70L, T74N, V79A, T100D, V113L
VL: B3 VL with S30G
B11: AB-64.4 (antibody, V domains shown)
VH: B1 VH with V20I, V68A, M70L, T74N, V79A, T100D, V113L
VL: B3 VL with S28D, N57Y, Q93E
B12: AB-64.3 (antibody, V domains shown)
VH: B1 VH with V20I, Q62E, Q65E, V68A, M70L, T74N, V79A, T100F, V113L
VL: B3 VL with S28D, N57Y, Q93E
B13: AB-64.1 huIgG1 (antibody)
heavy: not shown
light: DIVLTQSPDSLAVSLGERATINCRASQSVSTSTYSYMHWYQQKPGQPPKLLIKYASNLESGVPDRFSGSGSGTDFTLTISSLQAEDVAVYYCQHSWEIPLTFGQGTKLEIKRTVAAPSVFIFPPSDEQLKSGTASVVCLLNNFYPREAKVQWKVDNALQSGNSQESVTEQDSKDSTYSLSSTLTLSKADYEKHKVYACEVTHQGLSSPVTKSFNRGEC
B14: AB-64.1 huIgG2 (antibody)
heavy: QVQLVQSGAEVKKPGASVKISCKASGYTFTDYNLHWVRQAPGQGLEWIGFIYPSNGITGYAQKFQGRATLTVDNSTSTAYMELSSLRSEDTAVYYCARSDVDYFDYWGQGTLLTVSSASTKGPSVFPLAPCSRSTSESTAALGCLVKDYFPEPVTVSWNSGALTSGVHTFPAVLQSSGLYSLSSVVTVPSSNFGTQTYTCNVDHKPSNTKVDKTVERKCCVECPPCPAPPVAGPSVFLFPPKPKDTLMISRTPEVTCVVVDVSHEDPEVQFNWYVDGVEVHNAKTKPREEQFNSTFRVVSVLTVVHQDWLNGKEYKCKVSNKGLPAPIEKTISKTKGQPREPQVYTLPPSREEMTKNQVSLTCLVKGFYPSDIAVEWESNGQPENNYKTTPPMLDSDGSFFLYSKLTVDKSRWQQGNVFSCSVMHEALHNHYTQKSLSLSPGK
light: B13 light
B15: AB-64.1 huIgG1 LALAPS (antibody)
heavy: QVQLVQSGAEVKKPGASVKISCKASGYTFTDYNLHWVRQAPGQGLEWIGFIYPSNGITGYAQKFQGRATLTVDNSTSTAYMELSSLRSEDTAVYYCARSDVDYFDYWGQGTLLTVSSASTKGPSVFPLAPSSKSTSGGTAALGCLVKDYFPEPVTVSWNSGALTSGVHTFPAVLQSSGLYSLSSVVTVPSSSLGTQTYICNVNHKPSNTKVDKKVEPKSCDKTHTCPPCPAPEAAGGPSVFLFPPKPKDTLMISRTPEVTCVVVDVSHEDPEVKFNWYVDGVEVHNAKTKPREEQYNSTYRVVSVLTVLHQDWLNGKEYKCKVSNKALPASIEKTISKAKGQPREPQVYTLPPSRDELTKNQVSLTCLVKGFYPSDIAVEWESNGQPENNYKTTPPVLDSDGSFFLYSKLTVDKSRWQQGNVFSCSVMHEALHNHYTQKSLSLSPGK
light: B13 light
B16: AB-64.1 huIgG1 SELF (antibody, V domains shown)
VH: B1 VH with V20I, V68A, M70L, T74N, V79A, T100D, V113L
VL: B3 VL
B17: AB-64.1 huIgG1 N297A (antibody, V domains shown)
VH: B1 VH with V20I, V68A, M70L, T74N, V79A, T100D, V113L
VL: B3 VL

target: T1, human CD33 on primary human monocyte-derived dendritic cells (human, UniProt P20138 18-364); experiment: cell-based or functional assay
T1 sequence (P20138 18-364): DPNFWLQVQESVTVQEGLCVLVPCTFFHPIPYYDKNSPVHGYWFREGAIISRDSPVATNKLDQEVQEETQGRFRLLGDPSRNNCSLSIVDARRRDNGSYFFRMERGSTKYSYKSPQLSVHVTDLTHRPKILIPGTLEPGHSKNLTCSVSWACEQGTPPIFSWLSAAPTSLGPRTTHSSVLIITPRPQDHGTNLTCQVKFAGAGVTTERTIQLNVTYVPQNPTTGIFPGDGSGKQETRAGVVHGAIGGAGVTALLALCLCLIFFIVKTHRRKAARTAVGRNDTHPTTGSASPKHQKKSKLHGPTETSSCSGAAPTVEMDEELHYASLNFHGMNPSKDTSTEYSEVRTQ

Receptor downregulation (EC50) | Binder
0.0517 nM | B1
0.0234 nM | B2
0.0393 nM | B3
0.0586 nM | B4
0.0481 nM | B5

target: T1, human CD33 on primary human …; experiment: cell-based or functional assay; remark: another data set of the same source

Maximal Downregulation (% CD33 remaining) | Receptor downregulation (EC50) | Binder
31.2% | 0.017 nM | B6
30.6% | 0.0113 nM | B7
26.8% | 0.0166 nM | B8

target: T2, human CD33 (human, UniProt P20138 18-259, limits assumed); experiment: BLI (ForteBio), Fab 100 nM on immobilized CD33
T2 construct: Human CD33 immobilized on the BLI sensor tip or the BIAcore C1 chip; also called Siglec-3
Experimental: (§1) The affinities (KD) of the humanized antibodies for human CD33 were measured for each antibody by BioLayer Interferometry in a ForteBio assay according to standard techniques (Estep et al. (2013) MAbs 5(2): 270-8). […] The assay was carried out at room temperature.

T2 sequence (P20138 18-259 limits assumed): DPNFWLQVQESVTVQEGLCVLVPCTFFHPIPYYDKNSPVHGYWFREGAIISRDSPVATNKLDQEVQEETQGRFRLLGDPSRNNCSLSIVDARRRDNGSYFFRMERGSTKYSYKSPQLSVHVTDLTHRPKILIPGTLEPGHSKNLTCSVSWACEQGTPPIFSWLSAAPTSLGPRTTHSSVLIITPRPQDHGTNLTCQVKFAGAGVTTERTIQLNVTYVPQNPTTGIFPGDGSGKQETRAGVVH

Kd | Binder
3.24 nM | B1
3.5 nM | B2
5.54 nM | B3
5.45 nM | B4
8.57 nM | B5

target: T1, human CD33 on primary human …; experiment: cell-based or functional assay; remark: another data set of the same source

Receptor downregulation (EC50) | Binder
0.0306 nM | B6
0.0272 nM | B9
0.0263 nM | B10
0.0236 nM | B11
0.034 nM | B7
0.0311 nM | B8
0.0257 nM | B12

target: T2, human CD33; experiment: SPR (BIAcore), Fab over CD33 on C1 chip
Experimental: The affinity parameters for 10 of the 88 humanized antibodies (AB-H1, AB-H3, AB-H6, AB-H11, AB-H22, AB-H24, AB-H26, AB-H63, AB-H64, and AB-H71) were measured in a separate experiment by a more sensitive technique, surface plasmon resonance (BIAcore), and compared to Chimeric Ab and Chimeric Ab #2. BIAcore measurements were performed as follows: human CD33 was immobilized on the surface of a C1 chip, and Fabs were injected for 300 s to monitor association, followed by a 900 s flow in running buffer to monitor dissociation. The Fabs were measured at 5 concentrations: a high concentration of 27 nM and 3-fold serial dilutions.
In a separate experiment, as determined by the more sensitive BIAcore technique, affinity parameters of affinity matured antibodies derived from the humanized antibody AB-H64 were measured and were directly compared to that of the Chimeric Ab, according to the method described in Example 1 above.

Fold Change to AB-H64 | Fold Change to Chimeric Ab | Kd | koff | kon | Binder
216 fold | 163 fold | 0.00997 nM | 8.75e-05 s⁻¹ | 8.78e+06 M⁻¹ s⁻¹ | B6
321 fold | 242 fold | 0.00671 nM | 4.8e-05 s⁻¹ | 7.15e+06 M⁻¹ s⁻¹ | B9
214 fold | 162 fold | 0.0101 nM | 6.33e-05 s⁻¹ | 6.3e+06 M⁻¹ s⁻¹ | B10
586 fold | 443 fold | 0.00367 nM | 1.98e-05 s⁻¹ | 5.4e+06 M⁻¹ s⁻¹ | B11
341 fold | 258 fold | 0.0063 nM | 3.95e-05 s⁻¹ | 6.26e+06 M⁻¹ s⁻¹ | B7
46.9 fold | 35.5 fold | 0.0458 nM | 0.000137 s⁻¹ | 3e+06 M⁻¹ s⁻¹ | B8
401 fold | 303 fold | 0.00537 nM | 2.67e-05 s⁻¹ | 4.98e+06 M⁻¹ s⁻¹ | B12

target: T2, human CD33; experiment: BLI (ForteBio), Fab 100 nM on immobilized CD33; remark: another data set of the same source
Experimental: as §1
The affinities of AB-H64 and its variants (Table 5) for human CD33 were measured by Fortebio assay according to the method described in Example 1 above.

Fold affinity improvement over parental Ab (AB-H64) | Kd | Binder
11.9 fold | 0.24 nM | B6
10.3 fold | 0.277 nM | B9
7.76 fold | 0.369 nM | B10
7.95 fold | 0.36 nM | B11
8.52 fold | 0.336 nM | B7
3.64 fold | 0.786 nM | B8
6.53 fold | 0.438 nM | B12

target: T1, human CD33 on primary human …; experiment: cell-based or functional assay; remark: another data set of the same source

Maximal Downregulation (% CD33 remaining) | Receptor downregulation (pM, EC50) | Binder
17.5% | 36.2 pM | B13
15.1% | 35.6 pM | B14
39.4% | 57.1 pM | B15
10.9% | 31.9 pM | B16
41.3% | 29.3 pM | B17
